Measurements taken from patent publication US20210353708A1.
Where no end group is shown, it is not given here. [ ]: non-standard residue; d: D form.

Legend:
[1] = target: recombinant BΔg protein (recombinant human brevican, enzymatically deglycosylated, His-tagged) (human) (UniProt Q96GW7); assay: BLI (Octet RED), His-tagged BΔg on Ni-NTA sensors, peptide in solution, steady state analysis
[2] = target: recombinant BΔg protein (recombinant human brevican, enzymatically deglycosylated, His-tagged) (human) (UniProt Q96GW7); assay: BLI (Octet RED), steady state analysis

Chain of recombinant BΔg protein (recombinant human brevican, enzymatically deglycosylated, His-tagged) (human) (Q96GW7 23-911, stated change not applied, form in doubt): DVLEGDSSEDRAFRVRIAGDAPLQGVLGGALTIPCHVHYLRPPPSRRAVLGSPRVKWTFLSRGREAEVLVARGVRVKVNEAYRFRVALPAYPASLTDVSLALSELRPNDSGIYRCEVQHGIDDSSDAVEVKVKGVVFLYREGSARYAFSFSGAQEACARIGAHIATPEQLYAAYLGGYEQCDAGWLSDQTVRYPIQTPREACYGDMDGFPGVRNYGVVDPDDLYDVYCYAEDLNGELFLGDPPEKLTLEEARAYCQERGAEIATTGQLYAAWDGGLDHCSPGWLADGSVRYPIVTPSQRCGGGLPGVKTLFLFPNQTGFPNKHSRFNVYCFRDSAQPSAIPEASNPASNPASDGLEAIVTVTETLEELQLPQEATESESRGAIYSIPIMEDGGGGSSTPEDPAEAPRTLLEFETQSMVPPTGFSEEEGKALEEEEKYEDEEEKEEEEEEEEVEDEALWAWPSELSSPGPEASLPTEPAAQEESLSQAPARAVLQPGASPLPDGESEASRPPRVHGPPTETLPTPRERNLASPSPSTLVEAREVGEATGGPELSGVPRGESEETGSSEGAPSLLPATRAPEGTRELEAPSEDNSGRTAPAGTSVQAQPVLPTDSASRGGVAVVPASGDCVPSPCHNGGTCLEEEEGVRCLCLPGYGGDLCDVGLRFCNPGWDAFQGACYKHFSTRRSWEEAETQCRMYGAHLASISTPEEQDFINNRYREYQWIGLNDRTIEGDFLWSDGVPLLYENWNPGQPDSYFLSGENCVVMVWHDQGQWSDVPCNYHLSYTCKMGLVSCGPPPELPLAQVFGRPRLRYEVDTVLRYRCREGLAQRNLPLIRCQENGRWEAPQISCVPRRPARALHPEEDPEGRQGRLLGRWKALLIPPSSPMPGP

Binder | Kd [1] [nM] | fold lower binding affinity than the unlabeled BTP-7 [2] [fold]
[dT][dI][dR][dK][dL][dV][dR][dH]-NH2 (N-terminus assumed; SMILES CC[C@@H](C)[C@@H](NC(=O)[C@H](N)[C@H](C)O)C(=O)N[C@H](CCCNC(=N)N)C(=O)N[C@H](CCCCN)C(=O)N[C@H](CC(C)C)C(=O)N[C@@H](C(=O)N[C@H](CCCNC(=N)N)C(=O)N[C@H](Cc1c[nH]cn1)C(N)=O)C(C)C) [BTP-8, not labeled with a fluorophore] | 1570 | 
[dA][dD][dR][dR][dQ][dR][dA][dI]-NH2 (N-terminus assumed; SMILES CC[C@@H](C)[C@@H](NC(=O)[C@@H](C)NC(=O)[C@@H](CCCNC(=N)N)NC(=O)[C@@H](CCC(N)=O)NC(=O)[C@@H](CCCNC(=N)N)NC(=O)[C@@H](CCCNC(=N)N)NC(=O)[C@@H](CC(=O)O)NC(=O)[C@@H](C)N)C(N)=O) [BTP-9, not labeled with a fluorophore] | 1500 | 
[dT][dK][dW]G[dH][dV][dN][dK] (not fully specified (C-terminus); also: FITC on side chain of C-terminal Lys: own Lys8 or an added Lys, not given here) [BTP-7 conjugated to a fluorescein dye] | 3800 | > 10
